Molecular target: recombinant FGF23 protein (species not stated for the assay)
Test: sKL detection assay (sandwich): FGF23 coated, sKL sample, then Fc-FGFR1c, anti-Fc-HRP, A450

## FLAG-tagged soluble klotho (sKL) (receptor)
  fold binding activity against Com.sKL: 7 fold
